Test results from patent publication US20260055186A1 (REPERTOIRE IMMUNE MEDICINES, published 2026).
Like-named read-outs stand apart in the source and are kept apart here.

B1: 02A01-IgG-IL12 (LC) (other)
VH: EVQLQQSGPELVKPGASLKISCKASGYTFTDFTMHWVKQSHGKSLEWIGLVNPNNGGNIYNQNFKGKATLTVDTSSSTAYMELRSLTSEDSSVYYCGRVPLYTSHGMDYWGQGTSVTVSS
VL: DIVLTQSPAFLAVSLGQRATISCRASESVDSYDINSMHWYQQKPGQPPKLLIYRASHLQSGIPARFSGSGSRTDFTLTINFVEADDVATYYCQQSNEDPLTFGAGTKLELK
notes: 02A01 IgG with human IL-12p70 linked to the C-terminus of each light chain; human IgG1 Fc with L234A, L235A, P329G, N297A; also called 02A01 IgG IL12p70 (LC)
B2: H6K3-IgG-IL12 (1×HC) (other)
VH: EVQLVQSGAEVKKPGATVKISCKASGYTFTDFTMHWVQQAPGKGLEWIGLVNPNNGGNIYAEKFQGRVTLTVDTSTSTAYMELSSLRSEDTAVYYCGRVPLYTSHGMDYWGQGTLVTVSS
VL: EIVLTQSPATLSLSPGERATISCRASESVDSYDINSMHWYQQKPGQAPRLLIYRASHLQSGIPARFSGSGSRTDFTLTISSLEPEDFATYYCQQSNEDPLTFGQGTKLEIK
notes: Humanized 02A01 VH6/VK3 IgG1 with one human IL-12p70 on the C-terminus of the knob heavy chain; Fc with L234A, L235A, P329G, N297A and T366W / T366S, L368A, Y407V; not tied to this name; also called hCD8IgG-1×IL12 (HC); hCD8IgG-IL12 (1 × HC)
B3: hCD8 IgG IL2 (LC) (other)
VH: B2 VH
VL: B2 VL
notes: read as humanized 02A01-VH6-VK3; Wild type human IL-2 on each light chain C-terminus
B4: hCD8 IgG IL2 1× (HC) (other)
VH: B2 VH
VL: B2 VL
notes: read as humanized 02A01-VH6-VK3; One wild type human IL-2 on one heavy chain C-terminus; also called hCD8 IgG-IL2(HC)
B5: H6K3-IgG-IL12 (LC) (other)
VH: B2 VH
VL: B2 VL
notes: Humanized 02A01 VH6/VK3 IgG1 with human IL-12p70 on each light chain C-terminus; Fc with L234A, L235A, P329G, N297A; not tied to this name; also called hCD8IgG-IL12 (LC)
B6: 03A01-IgG-IL12 (LC) (other)
VH: DVQFQESGPGLVKPSQSLSLTCTVTGYSITSDFAWNWIRQFPGNELEWMGYISYSGDTNYNPSLRSRISITRDTSKNQFFLQLDSVTTEDTATYYCTIRGYYTDSAFVFWGQGTLVTVSA
VL: DIQMTQSSSYLSVSLGGRVTITCKASDHINNWLAWYQQKPGNAPRLLISGATSLETGVPSRFTGSGSGLDYTLSITSLQTEDVATYYCQQYWNSPFTFGSGTKLEIK
notes: 03A01 IgG with human IL-12p70 linked to the C-terminus of each light chain; human IgG1 Fc with L234A, L235A, P329G, N297A; also called 03A01 IgG IL12p70 (LC)

Key:
[1] = molecular target: T1, human CD8 on human T cells (human, UniProt P01732 22-235); assay: cell-based or functional assay
[2] = molecular target: T1, human CD8 on human T cells; assay: flow cytometry, CD8+ T cells in human PBMCs, 1 h, PE anti-IL12
Protocol: Fusion proteins 02A01-IgG-IL12 (LC) and 03A01-IgG-IL12 (LC) were evaluated for their ability to specifically target IL12 to CD8⁺ T cells. […] The cells were incubated with media lacking a fusion protein as a negative control. Following 1 hour of incubation with the IL12 fusion constructs, the cells were washed once with complete RPMI medium and prepared for flow cytometry analysis. Cells were washed once with phosphate-buffered saline (PBS) containing 1% bovine serum albumin (PBS/BSA) and then stained with a 1:100 dilution of PE-conjugated anti-IL12 antibody (Clone No. C11.5; BioLegend Cat. No. 501807) in PBS/BSA. Following a 20 minute incubation at room temperature, the cells were washed once with PBS/BSA and then resuspended in PBS/BSA for analysis on a FACSCelesta using Diva software (BD Biosciences). Binding activity was quantified and represented as the mean fluorescent intensity values of IL-12 on either CD8⁺ T cells or NK cells. […] At a saturating dose, there was a 4- to 5-fold more IL-12 bound to CD8⁺ T cells than was bound to NK cells.

[3] = molecular target: T1, human CD8 on human T cells; assay: cell-based or functional assay; remark: listed apart in the source
[4] = molecular target: T2, cynomolgus monkey CD8 on cynomolgus cells (cynomolgus monkey); assay: cell-based or functional assay
[5] = molecular target: T1, human CD8 on human T cells; assay: flow cytometry, CD8+ T cells in human PBMCs, 30 min 37 °C, anti-IL-12p40
Protocol: (§1) Fusion proteins H6K3-IgG-IL12 (LC) and H6K3-IgG-IL12 (1×HC) were also evaluated for their ability to bind CD8-expressing cells in human and cynomolgus monkey PBMCs. Briefly, 5×10⁴ human PBMCs (StemCell Technologies) or cynomolgus monkey PBMCs (iQ Biosciences) were incubated with 7 serial 5-fold dilutions of one of the two aforementioned H6K3-IgG-IL12 constructs for 30 minutes at 37° C. Cells were washed twice with MACS buffer and stained with viability dye and fluorophore-conjugated antibodies against IL-12 and cell-surface markers for 20 minutes at 4° C. Cells were analyzed on a FACSCelesta using Diva software (BD Biosciences). Binding activity for all treatments was quantified and represented as the mean fluorescence intensity values of IL-12 on human CD8+ T cells and NK cells (FIGS. 17A-17B) and on cynomolgus monkey CD8+ T cells and NK cells (FIGS. 17C-17D). For the H6K3-IgG-IL12 (LC) treatments, results are also reported as the frequency of IL-12+CD8+ T cells and NK cells (FIG. 17E). As shown in FIGS. 17A-17D, both H6K3-IgG-IL12 (LC) and H6K3-IgG-IL12 (1×HC) were able to selectively bind human CD8+ T cells over NK cells at a range of concentrations. […] Where the cells were incubated with 0.128 nM of the IL-12 fusion constructs, the number of live CD45+ cells staining as CD8+ and IL-12 were assessed by flow cytometry. […]

[6] = molecular target: T2, cynomolgus monkey CD8 on cynomolgus …; assay: flow cytometry, CD8+ T cells in cynomolgus PBMCs, 30 min 37 °C, anti-IL-12p40
Protocol: as §1

[7] = molecular target: T1, human CD8 on human T cells; assay: flow cytometry, CD8+ T cells in human PBMCs, 30 min 37 °C, anti-human IL-12 AF647
Protocol: Fusion proteins H6K3-IgG-IL12 (LC) and H6K3-IgG-IL12 (1×HC) were evaluated for their ability to selectively bind human CD8+ T cells in PBMCs. Briefly, 5×10⁴ human PBMCs (StemCell Technologies) were incubated with 7 serial 5-fold dilutions of one of the two aforementioned H6K3-IgG-IL12 constructs for 30 minutes at 37° C. Cells were washed twice with MACS buffer and stained for 20 minutes at 4° C. with fluorophore-conjugated anti-CD3, anti-CD4, anti-CD8, anti-CD56, and anti-IL12 antibodies, and viability dye. Cells were analyzed on a FACSCelesta using Diva software (BD Biosciences). Binding activity was quantified and represented as the mean fluorescent intensity values of IL-12 on either CD8+ T cells or NK Cells. As shown in FIGS. 16A-16B, both H6K3-IgG-IL12 (LC) and H6K3-IgG-IL12 (1×HC) were able to selectively bind human CD8+ T cells over NK cells at a range of concentrations.

[8] = molecular target: T2, cynomolgus monkey CD8 on cynomolgus …; assay: flow cytometry, NK cells in cynomolgus PBMCs (CD8-expressing by paragraph 442), 30 min 37 °C, anti-IL-12p40
Protocol: as §1

[9] = molecular target: T1, human CD8 on human T cells; assay: cell-based or functional assay; remark: listed apart in the source
[10] = molecular target: T1, human CD8 on human T cells; assay: cell-based or functional assay; remark: listed apart in the source
[11] = molecular target: T1, human CD8 on human T cells; assay: flow cytometry, human PBMC co-cultured 1 h with the fusion protein, anti-IL2 staining gated on CD8 T cells (IL2 loading, MFI)
Protocol: (§2) Anti-human CD8-human IL2 molecules were evaluated for their ability to specifically bind and load IL2 on CD8 T cells. Briefly, 1×10⁵ human PBMC were co-cultured with indicated CD8-IL2 (human FC receptor) molecules from one of the concentrations ranging from 0.05 pM to 0.4 nM. Following one hour incubation with molecules, PBMC were washed twice with RPMI complete medium and washed once with PBS. The washed cells were stained with anti-IL2 (MQ1-17H12), anti-human kappa (MHK-49) and lineage surface markers CD3(UCHT1), CD4(SK3) and NK(HCD56) for 20 minutes, after which the cells were washed and analyzed using a flow cytometer. The binding affinity was quantified and represented as mean fluorescence intensity (MFI).

[12] = molecular target: T1, human CD8 on human T cells; assay: flow cytometry, human PBMC co-cultured 1 h with the fusion protein, anti-human kappa staining on CD8 T cells (CD8 antibody binding, MFI)
Protocol: as §2

T1 sequence (P01732 22-235): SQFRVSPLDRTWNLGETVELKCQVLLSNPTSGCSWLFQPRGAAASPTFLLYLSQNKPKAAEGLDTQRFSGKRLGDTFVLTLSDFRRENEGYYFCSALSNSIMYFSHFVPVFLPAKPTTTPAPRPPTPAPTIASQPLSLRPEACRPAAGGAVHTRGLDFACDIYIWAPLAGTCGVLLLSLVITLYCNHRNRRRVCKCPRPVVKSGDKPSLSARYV

Binder | EC50 of pSTAT4 signaling in human CD8+ T cells [1] [pM] | EC50 (read off the curve) [2] [nM] | EC50 of pSTAT4 signaling in human CD8+ T cells [3] [pM] | EC50 of pSTAT4 signaling in cynomolgus CD8+ T cells [4] [pM] | EC50 of pSTAT4 signaling in cynomolgus NK cells [4] [pM] | EC50 (read off the curve) [5] [nM] | EC50 (read off the curve) [6] [nM] | EC50 (read off the curve) [7] [nM] | EC50 of pSTAT5 activation in human CD8+ T cells [9] [pM] | EC50 of Ki67 expression (proliferation) in human CD8+ T cells [10] [nM] | EC50 (read off the curve) [11] [nM] | EC50 (read off the curve) [12] [nM] | other results
B1 | 2.72 | ~0.01 |  |  |  |  |  |  |  |  |  |  | 
B2 |  |  | 2.3 | 2.3 | 2 | ~0.05 | ~0.05 | ~0.06 |  |  |  |  | EC50 (read off the curve) [8]: ~0.1 nM
B3 |  |  |  |  |  |  |  |  | 0.246 | 0.0551 | ~0.03 | ~0.03 | 
B4 |  |  |  |  |  |  |  |  | 0.448 | 0.0689 | ~0.03 | ~0.03 | 
B5 |  |  | 3.3 | 1.8 | 2.4 | ~0.03 | ~0.05 | ~0.04 |  |  |  |  | 
B6 | 14.7 | ~0.2 |  |  |  |  |  |  |  |  |  |  | 
